The target in one test is FcγRIA (UniProt P12314). Nature of the test: SPR; BIACORE T200, 25 °C; FcγRs immobilised by amine coupling on CM5 chips; test materials flowed over (HMC001 and I.V.-Globulin SN 31.25-500 nM, HM15136 30.38-486 nM); steady-state affinity fit.
The next test deals with FcγRIIA (UniProt P12318). The test is described as above.
In the next test the target is FcγRIIIA (UniProt P08637). The test is described as above.
Another test deals with FcγRIIIB (UniProt O75015). Described as above.
For test [1], the target named is human glucagon receptor (human) (UniProt P47871).
The target of another test is FcRn (UniProt P55899). Nature of the test: SPR; association with FcRn at pH 6.0, dissociation at pH 7.4.

pKd: −log10 of the molar value.

Sequence of FcγRIIA (P12318 34-217): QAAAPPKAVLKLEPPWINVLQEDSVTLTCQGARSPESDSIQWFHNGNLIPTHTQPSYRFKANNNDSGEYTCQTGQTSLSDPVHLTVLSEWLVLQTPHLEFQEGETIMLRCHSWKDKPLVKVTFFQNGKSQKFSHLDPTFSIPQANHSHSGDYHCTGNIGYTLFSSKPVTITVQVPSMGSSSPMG
Sequence of FcγRIA (P12314 16-292): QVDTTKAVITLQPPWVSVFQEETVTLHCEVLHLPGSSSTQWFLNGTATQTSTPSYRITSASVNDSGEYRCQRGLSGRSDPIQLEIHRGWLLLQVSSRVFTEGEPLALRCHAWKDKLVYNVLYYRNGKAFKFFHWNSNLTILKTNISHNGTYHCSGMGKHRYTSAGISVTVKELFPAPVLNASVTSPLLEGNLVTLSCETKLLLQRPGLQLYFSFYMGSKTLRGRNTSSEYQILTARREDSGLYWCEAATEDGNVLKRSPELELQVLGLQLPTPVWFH
Sequence of FcRn (P55899 24-365, chain 1 of 2): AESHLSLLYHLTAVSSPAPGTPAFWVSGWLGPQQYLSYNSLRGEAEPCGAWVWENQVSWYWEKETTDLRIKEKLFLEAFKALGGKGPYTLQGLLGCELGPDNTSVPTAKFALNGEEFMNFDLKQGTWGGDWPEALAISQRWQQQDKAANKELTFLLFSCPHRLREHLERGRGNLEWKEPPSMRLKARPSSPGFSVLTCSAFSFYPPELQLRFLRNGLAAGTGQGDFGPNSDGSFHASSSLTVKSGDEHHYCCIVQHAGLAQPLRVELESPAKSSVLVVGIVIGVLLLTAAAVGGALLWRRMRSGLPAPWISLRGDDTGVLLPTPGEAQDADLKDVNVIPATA
Sequence of FcRn (P61769 21-119, chain 2 of 2, further chain): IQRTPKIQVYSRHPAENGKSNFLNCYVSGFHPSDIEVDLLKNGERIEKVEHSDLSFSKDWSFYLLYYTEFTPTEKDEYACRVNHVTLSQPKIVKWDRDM
Sequence of FcγRIIIA (P08637 17-208): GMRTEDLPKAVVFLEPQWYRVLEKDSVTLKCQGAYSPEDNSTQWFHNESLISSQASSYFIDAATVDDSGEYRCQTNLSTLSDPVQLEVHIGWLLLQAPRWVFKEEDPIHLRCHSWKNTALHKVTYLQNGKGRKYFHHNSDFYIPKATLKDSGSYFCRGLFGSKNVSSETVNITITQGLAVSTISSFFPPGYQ
Sequence of FcγRIIIB (O75015 17-200): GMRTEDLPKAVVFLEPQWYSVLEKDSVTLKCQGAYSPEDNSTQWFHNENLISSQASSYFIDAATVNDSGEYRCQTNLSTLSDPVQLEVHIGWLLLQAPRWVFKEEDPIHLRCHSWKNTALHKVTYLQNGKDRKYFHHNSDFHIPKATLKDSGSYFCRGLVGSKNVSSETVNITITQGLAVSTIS

Regarding IgG1 (=I.V.-Globulin SN) (antibody), the pKd with FcγRIA is 7.57; with FcγRIIA, 6.74; in the test with FcγRIIIA, 6.68; with FcγRIIIB, 5.80.

In the case of HM15136, in test [1], the EC50 of intracellular cAMP generation in hGCGR/CHO cells (0.0015 to 1555.2 nM HM15136) was determined as 0.024 nM. The Ka with FcRn came out at 420000.

The record behind these values is paper PMC9537296, “A novel glucagon analog with an extended half-life, HM15136, normalizes glucose levels in rodent models of congenital hyperinsulinism” (Scientific Reports, 2022).
